± gives the uncertainty stated by the source.
Test: amyloid nucleation score (Sup35N fusion, yeast selection) (log enrichment); library NNK3; higher = more nucleation; inactive = no reads after selection
Method in brief: (§1)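 Nucleation score: DiMSum log enrichment of output over input reads, centred on the mode score of non-aggregating sequences. Only sequences with at least 100 input reads were kept. Reads came from Illumina sequencing of plasmid inserts before and after 7 days of growth at 30°C without adenine and uracil, in psi-negative yeast expressing Sup35N fused to peptides of 20 random codons after 24 hours of induction with 100 μM copper sulfate.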

Row | Substance | amyloid nucleation score
1 | YLYMG | inactive
2 | YLYNRSMRVPLMSRKLFGGD | inactive
3 | YLYRFLPVQTRPLMHATSYI | inactive
4 | YMGCMTVW | inactive
5 | YMGEVCCIVVVTDHLCTVVI | inactive
6 | YMLIKYGSL | 0.449 ± 0.35
7 | YMRDVDFIRSEGG | inactive
8 | YMYQLKYYASEMNWVYSYSI | inactive
9 | YNCFDDNTYPYSANGSRNSL | inactive
10 | YNDNSNCSARMGLI | inactive
11 | YNFGLVNV | inactive
12 | YNRFLVVSGMGMSFYGKQYM | 1.51 ± 0.074
13 | YNRLIMSSELSMIGTTCISY | inactive
14 | YNTRGQSSFSPCEIMWLVHI | inactive
15 | YPDNIFFCQSN | inactive
16 | YPLDTVGFWEESKLFVGRGG | inactive
17 | YPNIERFTETWISYVDQNRG | -0.083 ± 0.58
18 | YPPTGMIWIRILVSV | inactive
19 | YPRTSFRFKGCDKEVVSDLL | inactive
20 | YPSGVYKFFAASATCWIM | inactive
21 | YPYCKKGWCDMKTKGRSKEG | inactive
22 | YQESKYIS | inactive
23 | YQGAFS | 0.341 ± 0.83
24 | YQQSIVHVRRFTYRRAPVVA | -0.46 ± 1.9
25 | YRAYYSYSFRW | inactive

Row | Substance | amyloid nucleation score
26 | YRCYVVVSCWIHLNIKWLMY | inactive
27 | YRFRRDNLWCTWSSYMYMYC | inactive
28 | YRLCLDSCIKIYLQGWVYVY | inactive
29 | YRLPMILKFLNWGFSYLVPF | inactive
30 | YRLRSICSFLGVVSYG | inactive
31 | YRNRTVFALSGLSQGDLPEV | inactive
32 | YRPGW | inactive
33 | YRPYC | inactive
34 | YRRELAKSHLYMSIWRNRLP | inactive
35 | YRRKVELIRSLRW | inactive
36 | YRRYPVIR | inactive
37 | YRSRLYNCFFGQFYMSLTNM | 2.07 ± 0.064
38 | YRVWTVYRVYILAGTKNIRS | inactive
39 | YRWGRVYPSAFSLCKLRYKL | inactive
40 | YSAAEDVKWVLGFCYAGFNS | inactive
41 | YSAQFITSIGLGQKLFS | inactive
42 | YSCAKRTRVGTRSSRKVSLA | inactive
43 | YSCTFYTLCPENI | 1.85 ± 0.07
44 | YSCVVL | inactive
45 | YSDWDIYWIFMFGAGRFFMY | 3.06 ± 0.068
46 | YSDWELVSGVQLA | inactive
47 | YSFMKP | inactive
48 | YSFRCVSTSVNGNRVMAAVS | inactive
49 | YSFRNSIDAFRLEYKKRYRF | -0.403 ± 0.93
50 | YSGSCNFVQVSVFKHWSGVY | inactive

Row | Substance | amyloid nucleation score
51 | YSGSNCLSSDEYWWRDDSLT | inactive
52 | YSIDLFIRESDFDVHKKHIS | inactive
53 | YSILYKSYYLRMHWVVASRL | inactive
54 | YSMQVICISCVLRIDIGDVA | 0.89 ± 0.16
55 | YSRDIYVLEHV | inactive
56 | YSRLTLVAEPFYNMGVKNLM | inactive
57 | YSSARTFSLHCIERLYSGYV | inactive
58 | YSSGSFCLFKWSIHR | 1.65 ± 0.065
59 | YSSLW | inactive
60 | YSTCDLGLHIGAQQERYGLG | 0.253 ± 0.37
61 | YSTFLFQGYLFLEPEYSGCR | inactive
62 | YSTRPSYFLDLMLYIDTWVQ | inactive
63 | YSVDGICTRAVLGPVDWVNG | inactive
64 | YSVFAVFILRHGSRILY | inactive
65 | YSWGRWICHNVVE | -0.21 ± 0.74
66 | YSWVKEYLSLLSYYCNYRVD | inactive
67 | YTERYS | -0.265 ± 0.96
68 | YTFTRV | inactive
69 | YTGSVRFVEM | inactive
70 | YTIALTRGLKFMVINCRTFY | inactive
71 | YTIVLLYERFQLAPTTMWMC | inactive
72 | YTLLCNPMVSKSARRLLNWI | inactive
73 | YTLRCDFLRNTA | inactive
74 | YTNHFVDLGMVKLVLFTWNM | 1.63 ± 0.11
75 | YTPRFMISSWVLRDFIHGVS | inactive

Row | Substance | amyloid nucleation score
76 | YTPVIKCSYFTSIIGWAGPA | inactive
77 | YTTKRL | inactive
78 | YTVSFYIQLCTDRQISHRGI | 2.34 ± 0.071
79 | YTYECRCH | inactive
80 | YVAIMLAKSKTRS | inactive
81 | YVCCHERWVGFYSGK | inactive
82 | YVDNLACLNSFPIMPVFKVG | inactive
83 | YVDPRGVTVSWMSIYSRRAL | inactive
84 | YVFFLSLNIKPMLYTTLVGV | -0.138 ± 0.51
85 | YVKMWHGFYFDRGNGRRDLN | inactive
86 | YVLLVWDCRLFSVRISFRSV | inactive
87 | YVRSYLILS | inactive
88 | YVVNFVLL | 2.43 ± 0.085
89 | YVYSRVMECKDRHYETYFVA | inactive
90 | YWGIVVILSGDLRGYDH | inactive
91 | YWMNERLTSSKYDAGR | inactive
92 | YWNMKNFCSTTIIHRKGRFG | 0.65 ± 0.16
93 | YWSGRIKGTR | inactive
94 | YWVCPIGFFNCWLNRMTRLM | 1.59 ± 0.12
95 | YYALKYVNLQLNKRNVTRWV | inactive
96 | YYFDDVTLKASTRDRVLARG | inactive
97 | YYIYIYMCRLLVYIGFHFYW | inactive
98 | YYLGLLTYRWGLRFFYLIVS | inactive
99 | YYLVSSMFYMFQSNEVNGNM | inactive
100 | YYLVYPRNIIMYKGNNFLKP | 2.24 ± 0.063

Test: amyloid nucleation score (Sup35N fusion, yeast selection) (log enrichment); library NNK2; higher = more nucleation; inactive = no reads after selection
Method in brief: as §1

Row | Substance | amyloid nucleation score
101 | AADSRYGGNGCFRSMLFALI | 0.817 ± 0.45
102 | AAFLNWVVCEIENEEGMSWL | inactive
103 | AAFTRTSP | 0.858 ± 0.27
104 | AAILFSGDVLCLLRCYIAIK | -0.291 ± 0.74
105 | AAIRH | -0.328 ± 0.49
106 | AASNQMSQ | inactive
107 | AASRWVVSHKYRWWMMRLMK | 0.302 ± 0.23
108 | AASWTPSCNCPPWVFHGWLL | 0.16 ± 0.8
109 | ACDVDAMFTKMYSIFFR | 0.479 ± 0.62
110 | ACHRFYLMKSML | 1.28 ± 0.36
111 | ACNFQVCGWERQSSRFR | 3.14 ± 0.087
112 | ACQYLGLETPKWCGINRWGL | 0.324 ± 0.26
113 | ACRLVYNLGRVHLGNHSDIL | -0.225 ± 1
114 | ADEVLYYGCVSSCLMFGVLI | -0.069 ± 0.35
115 | ADFFVLDMWLTYCMKTLFSC | -1.27 ± 0.48
116 | ADSVYAVRRKAV | 0.356 ± 0.8
117 | AEAISQLEAMR | 1.13 ± 0.39
118 | AEAWGVFYHWHDT | -0.493 ± 0.53
119 | AELLYMFWACNFSWSMPL | -0.986 ± 0.76
120 | AESVCYQMTCIPCLLIFNTV | 8.966 ± 0.054
